Laboratory results from patent US20170226216A1.

Biological target: recombinant human BCMA protein conjugated to IgG1 Fc-PE (human) (UniProt Q02223)
Experiment: flow cytometry, CAR T cells stained with BCMA-IgG1 Fc-PE

Sequence of UniProt Q02223 (Q02223 1-54 limits assumed): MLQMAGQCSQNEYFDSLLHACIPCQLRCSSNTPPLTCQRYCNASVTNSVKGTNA

B1: humanized anti-BCMA-10.2 CAR (protein)
chain: DIVLTQSPASLAVSLGERATINCRASESVSVIGAHLIHWYQQKPGQPPKLLIYLASNLETGVPARFSGSGSGTDFTLTISSLQAEDAAIYYCLQSRIFPRTFGQGTKLEIKGSTSGSGKPGSGEGSTKGQVQLVQSGSELKKPGASVKVSCKASGYTFTDYSINWVRQAPGQGLEWMGWINTETREPAYAYDFRGRFVFSLDTSVSTAYLQISSLKAEDTAVYYCARDYSYAMDYWGQGTLVTVSSAAADTGLYICKVELMYPPPYYLGIGNGTQIYVIDPEPCPDSDFLLWILAAVSSGLFFYSFLLTAVSKRGRKKLLYIFKQPFMRPVQTTQEEDGCSCRFPEEEEGGCELRVKFSRSADAPAYQQGQNQLYNELNLGRREEYDVLDKRRGRDPEMGGKPRRKNPQEGLYNELQKDKMAEAYSEIGMKGERRRGKGHDGLYQGLSTATKDTYDALHMQALPPR
Work on B1 yielded a T cells stained with BCMA-IgG1 Fc-PE (CAR surface expression), Donor 1 of 86.2.
